Reference: FireProtDB (doi:10.1016/s0167-4838(99)00132-6)

Conditions: Oryctolagus cuniculus; pH 6; Thermal; DSC; KH2PO4-KOH 10 mM; reversible: no

Chain of Glyceraldehyde-3-phosphate dehydrogenase wild type, P46406 (P46406 whole entry): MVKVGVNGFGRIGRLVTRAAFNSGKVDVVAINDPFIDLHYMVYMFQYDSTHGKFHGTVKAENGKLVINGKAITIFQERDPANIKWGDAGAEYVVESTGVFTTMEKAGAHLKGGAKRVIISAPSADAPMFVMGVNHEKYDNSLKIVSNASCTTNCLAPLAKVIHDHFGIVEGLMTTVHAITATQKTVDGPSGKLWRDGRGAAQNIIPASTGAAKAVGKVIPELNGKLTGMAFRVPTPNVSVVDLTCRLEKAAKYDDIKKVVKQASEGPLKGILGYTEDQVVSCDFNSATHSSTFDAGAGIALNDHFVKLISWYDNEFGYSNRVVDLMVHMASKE

Glyceraldehyde-3-phosphate dehydrogenase wild type, P46406
Tm: 68.9 °C | unfolding enthalpy (calorimetric): 693 kcal/mol
